These results are taken from patent US20210393777A1.

In test [1] the target is LDLR (human) (UniProt P01130).
For test [2], the target named is human PCSK9-D347Y (human) (UniProt Q8NBP7). Nature of the test: cell-based or functional assay.

Sequence of LDLR (human) (P01130 22-860): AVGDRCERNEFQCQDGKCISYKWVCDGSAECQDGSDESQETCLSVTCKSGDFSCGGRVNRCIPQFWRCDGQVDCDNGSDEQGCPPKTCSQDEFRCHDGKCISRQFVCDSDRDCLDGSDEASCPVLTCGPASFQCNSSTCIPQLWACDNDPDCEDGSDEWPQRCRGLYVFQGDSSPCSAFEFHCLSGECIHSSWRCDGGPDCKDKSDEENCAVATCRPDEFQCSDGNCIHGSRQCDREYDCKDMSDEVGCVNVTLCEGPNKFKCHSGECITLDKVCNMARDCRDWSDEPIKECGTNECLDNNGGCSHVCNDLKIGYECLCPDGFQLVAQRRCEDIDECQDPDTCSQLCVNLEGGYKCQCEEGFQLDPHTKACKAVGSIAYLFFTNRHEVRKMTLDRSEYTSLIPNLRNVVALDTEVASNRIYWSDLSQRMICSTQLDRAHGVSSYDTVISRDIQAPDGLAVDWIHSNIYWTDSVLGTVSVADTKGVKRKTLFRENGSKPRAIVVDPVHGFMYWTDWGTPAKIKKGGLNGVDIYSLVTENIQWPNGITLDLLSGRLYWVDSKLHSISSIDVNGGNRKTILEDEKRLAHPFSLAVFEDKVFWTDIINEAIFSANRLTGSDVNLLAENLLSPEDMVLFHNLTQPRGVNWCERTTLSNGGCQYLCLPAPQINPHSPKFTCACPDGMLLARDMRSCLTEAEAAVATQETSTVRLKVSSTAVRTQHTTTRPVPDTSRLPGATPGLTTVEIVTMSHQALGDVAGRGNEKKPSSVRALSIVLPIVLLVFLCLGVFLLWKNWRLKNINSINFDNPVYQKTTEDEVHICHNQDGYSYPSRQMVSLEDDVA

In test [1], “Cynomolgus monkey PCSK9 (from UniProt A0A7N9D9N8) (enzyme)” returned an IC50 of the fall in RFU as PCSK9 concentration rises ('Inhibition of different PCSK9 antigen species'; binding and uptake of LDL by cells) of 2.46 µg/mL.

As for JS002 (antibody), in test [2], the Biological activity (LDL uptake assay in HepG2 cells), formulation 20, 25 C, month 0 (% of reference standard) turned out to be 104; the Biological activity (LDL uptake assay in HepG2 cells), formulation 20, 25 C, month 1 (% of reference standard) was determined as 94.2; the Biological activity (LDL uptake assay in HepG2 cells), formulation 20, 25 C, month 3 (% of reference standard) amounted to 92.6; the Biological activity (LDL uptake assay in HepG2 cells), formulation 20, 25 C, month 6 (% of reference standard) was 81.1. Moreover, in test [2], the Biological activity (LDL uptake assay in HepG2 cells), formulation 28, 2-8 C, month 0 (% of reference standard) came out at 120; the Biological activity (LDL uptake assay in HepG2 cells), formulation 28, 2-8 C, month 1 (% of reference standard) worked out at 106; the Biological activity (LDL uptake assay in HepG2 cells), formulation 28, 2-8 C, month 2 (% of reference standard) stood at 111; the Biological activity (LDL uptake assay in HepG2 cells), formulation 28, 2-8 C, month 3 (% of reference standard) came out at 109. Moreover, in test [2], the Biological activity (LDL uptake assay in HepG2 cells), formulation 28, 2-8 C, month 6 (% of reference standard) came out at 106; the Biological activity (LDL uptake assay in HepG2 cells), formulation 28, 2-8 C, month 9 (% of reference standard) is 104; the Biological activity (LDL uptake assay in HepG2 cells), formulation 28, 2-8 C, month 12 (% of reference standard) was found to be 109; the Biological activity (LDL uptake assay in HepG2 cells), formulation 29, 2-8 C, month 0 (% of reference standard) was 102. In test [2], the Biological activity (LDL uptake assay in HepG2 cells), formulation 29, 2-8 C, month 1 (% of reference standard) was 103; the Biological activity (LDL uptake assay in HepG2 cells), formulation 29, 2-8 C, month 2 (% of reference standard) is 97.3; the Biological activity (LDL uptake assay in HepG2 cells), formulation 29, 2-8 C, month 3 (% of reference standard) is 90.3; the Biological activity (LDL uptake assay in HepG2 cells), formulation 29, 2-8 C, month 6 (% of reference standard) was 84.9. In test [2], this substance displayed a Biological activity (LDL uptake assay in HepG2 cells), formulation 29, 2-8 C, month 9 (% of reference standard) of 103; a Biological activity (LDL uptake assay in HepG2 cells), formulation 29, 2-8 C, month 12 (% of reference standard) of 97.7; a Biological activity (LDL uptake assay in HepG2 cells), formulation 30, 2-8 C, month 0 (% of reference standard) of 114; a Biological activity (LDL uptake assay in HepG2 cells), formulation 30, 2-8 C, month 1 (% of reference standard) of 94.6. In test [2], this substance registered a Biological activity (LDL uptake assay in HepG2 cells), formulation 30, 2-8 C, month 2 (% of reference standard) of 96.8; a Biological activity (LDL uptake assay in HepG2 cells), formulation 30, 2-8 C, month 3 (% of reference standard) of 98.7; a Biological activity (LDL uptake assay in HepG2 cells), formulation 30, 2-8 C, month 6 (% of reference standard) of 92.3; a Biological activity (LDL uptake assay in HepG2 cells), formulation 30, 2-8 C, month 9 (% of reference standard) of 106. Also, in test [2], the Biological activity (LDL uptake assay in HepG2 cells), formulation 30, 2-8 C, month 12 (% of reference standard) stood at 97.2; the Biological activity (LDL uptake assay in HepG2 cells), formulation 31, 2-8 C, month 0 (% of reference standard) turned out to be 122; the Biological activity (LDL uptake assay in HepG2 cells), formulation 31, 2-8 C, month 1 (% of reference standard) turned out to be 97.9; the Biological activity (LDL uptake assay in HepG2 cells), formulation 31, 2-8 C, month 2 (% of reference standard) is 83.5. In test [2], this substance registered a Biological activity (LDL uptake assay in HepG2 cells), formulation 31, 2-8 C, month 3 (% of reference standard) of 107; a Biological activity (LDL uptake assay in HepG2 cells), formulation 31, 2-8 C, month 6 (% of reference standard) of 108; a Biological activity (LDL uptake assay in HepG2 cells), formulation 31, 2-8 C, month 9 (% of reference standard) of 87.8; a Biological activity (LDL uptake assay in HepG2 cells), formulation 31, 2-8 C, month 12 (% of reference standard) of 102. In addition, in test [2], the EC50, uptake of fluorescently labeled LDL by HepG2 cells exposed to human PCSK9-D347Y turned out to be 0.0927 µg/mL.

The substance evolocumab (antibody) displayed an EC50, uptake of fluorescently labeled LDL by HepG2 cells exposed to human PCSK9-D347Y in test [2] of 0.151 µg/mL.
